Source: article doi:10.1101/2025.02.19.638559, “The architecture, assembly, and evolution of a complex flagellar motor” (bioRxiv, 2025)

What was measured:
[1] = target: FlgY_(90–172) (C. jejuni 81-176); test: SEC; Superdex 200 Increase 10/300 GL; 20 mM Tris-HCl pH 8.0, 300 mM NaCl
[2] = target: FlgY_(15–172), FlgY without the predicted signal peptide (C. jejuni 81-176); test: as above
PflA_(16–788)-Strep = target: T1, PflA_(16–788)-Strep (C. jejuni 81-176, UniProt Q46092 16-788); test: MST
T1 chain: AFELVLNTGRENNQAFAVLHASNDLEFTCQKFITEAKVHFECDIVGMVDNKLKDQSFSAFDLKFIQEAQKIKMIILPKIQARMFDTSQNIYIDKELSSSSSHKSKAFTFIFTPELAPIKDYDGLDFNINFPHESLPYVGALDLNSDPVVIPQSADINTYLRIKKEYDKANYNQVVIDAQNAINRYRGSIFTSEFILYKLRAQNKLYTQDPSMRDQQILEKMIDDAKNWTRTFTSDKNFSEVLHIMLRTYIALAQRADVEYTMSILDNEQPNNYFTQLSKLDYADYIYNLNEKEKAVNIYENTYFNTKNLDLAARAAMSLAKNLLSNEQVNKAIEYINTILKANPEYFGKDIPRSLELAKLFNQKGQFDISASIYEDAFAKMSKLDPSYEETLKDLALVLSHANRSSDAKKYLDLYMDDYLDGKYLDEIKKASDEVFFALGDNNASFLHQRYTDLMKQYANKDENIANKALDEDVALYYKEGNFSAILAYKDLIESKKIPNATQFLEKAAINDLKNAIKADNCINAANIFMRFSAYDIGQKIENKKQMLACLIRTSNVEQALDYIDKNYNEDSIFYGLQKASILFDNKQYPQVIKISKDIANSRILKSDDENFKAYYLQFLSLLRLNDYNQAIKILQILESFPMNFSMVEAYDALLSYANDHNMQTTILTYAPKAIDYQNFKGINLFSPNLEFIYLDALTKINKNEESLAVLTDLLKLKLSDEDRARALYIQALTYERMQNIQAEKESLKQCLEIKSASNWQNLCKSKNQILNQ

PflB_(113–820) = target: T2, PflB_(113–820) (C. jejuni 81-176, UniProt A0A6F9L7Y3 113-820); test: cryo-EM structure; single-particle cryo-EM of the purified PflA16-788 and PflB113-820 complex at 0.4 mg/ml; 3.23 Å; conditions: both partners purified
T2 construct: PflB of C. jejuni 81-176, residues 113-820; 178-820 resolved in the cryo-EM structure; also called PflB_(178–820) (the part built in the model)
T2 sequence: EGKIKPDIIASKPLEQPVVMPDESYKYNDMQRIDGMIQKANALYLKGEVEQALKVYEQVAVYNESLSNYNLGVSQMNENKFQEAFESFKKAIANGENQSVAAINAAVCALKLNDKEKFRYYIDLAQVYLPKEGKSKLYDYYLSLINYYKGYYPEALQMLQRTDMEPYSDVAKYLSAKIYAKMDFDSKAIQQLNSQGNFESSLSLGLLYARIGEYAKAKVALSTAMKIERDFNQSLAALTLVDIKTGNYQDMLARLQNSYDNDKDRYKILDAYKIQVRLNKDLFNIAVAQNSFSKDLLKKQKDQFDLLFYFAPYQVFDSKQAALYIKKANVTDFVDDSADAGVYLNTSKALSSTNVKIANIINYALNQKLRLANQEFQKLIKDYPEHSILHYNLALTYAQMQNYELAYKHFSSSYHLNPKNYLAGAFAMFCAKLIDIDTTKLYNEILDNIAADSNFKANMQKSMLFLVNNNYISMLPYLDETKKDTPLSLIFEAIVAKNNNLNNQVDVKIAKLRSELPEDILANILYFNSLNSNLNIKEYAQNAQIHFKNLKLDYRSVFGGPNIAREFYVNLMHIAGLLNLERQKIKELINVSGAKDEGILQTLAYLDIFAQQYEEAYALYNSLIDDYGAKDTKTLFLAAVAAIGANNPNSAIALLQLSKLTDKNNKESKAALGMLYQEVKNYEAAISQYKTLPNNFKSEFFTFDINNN

## FlgY_(90–172) (domain or fragment)
[1]
  stoichiometry N: 2

## FlgY_(15–172), FlgY without the predicted signal peptide (domain or fragment)
[2]
  stoichiometry N: 2

B1: FlgY_(15–172), FlgY without the predicted signal peptide (domain or fragment)
chain: VFGAEQDCEQYFEARKAQIELQTREFDEARQSLEAYKASFEALQKERLENLEKKEAEVNATLAKIEELKLENARLVEEQQKILNSINDKTQGRVKEIYSQMKDAAIADVLSQMDAEDASKIMLSLESRKISGVLSKMDPKKASELTLLLKNLDNNASN
PflA_(16–788)-Strep
  Kd: 3.5 µM

B2: PflA_(16–788) of the purified PflA_(16–788) and PflB_(113–820) complex (domain or fragment)
chain: T1 chain
notes: PflA of C. jejuni 81-176, residues 16-788; only 16-163 (β-sandwich domain and flexible loop) are resolved in the cryo-EM structure; PflA16-788 was cloned both in pET22b (C-terminal 6×His) and in pET26b (C-terminal Strep-tag); also called PflA_(16–163) (the part resolved in the map)
PflB_(113–820)
  stoichiometry N: 1
